From patent US20150344570A1 (published 2015)

T1: FcγRIIb, extracellular domain with C-terminal His tag (human, UniProt P31994 43-217)
T1 construct: extracellular domain; also called FcgRIIb; 2b; not shown: His tag at the C terminus
T1 sequence (looked up): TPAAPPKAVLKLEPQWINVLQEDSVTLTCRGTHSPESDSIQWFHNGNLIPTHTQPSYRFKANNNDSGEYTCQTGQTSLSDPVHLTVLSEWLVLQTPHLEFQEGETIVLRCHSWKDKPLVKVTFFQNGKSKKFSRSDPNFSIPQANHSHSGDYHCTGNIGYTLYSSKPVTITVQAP

T2: FcγRIIa H (FcγRIIa, allotype with His at position 131), extracellular domain with C-terminal His tag (human, UniProt P12318 34-217)
T2 construct: extracellular domain; also called FcgRIIa H; 2aH; not shown: His tag at the C terminus
T2 sequence (looked up): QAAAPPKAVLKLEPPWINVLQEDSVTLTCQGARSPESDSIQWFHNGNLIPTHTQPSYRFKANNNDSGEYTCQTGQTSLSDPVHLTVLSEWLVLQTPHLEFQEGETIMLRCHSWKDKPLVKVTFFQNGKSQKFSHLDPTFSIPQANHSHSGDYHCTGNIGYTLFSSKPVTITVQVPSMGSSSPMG

T3: FcγRIIa H (human FcγRIIa, allotype H131, extracellular domain with C-terminal His tag) (human, UniProt P12318 34-217)
T3 construct: extracellular domain; Soluble extracellular domain expressed in FreeStyle293 cells; used as analyte in Biacore; also called FcgRIIa H; FcγRIIa type H; not shown: His tag attached to the C terminus
T3 sequence (looked up): T2 sequence (looked up)

B1: GpH7-A5/GpH7-B3 variant K326_09D/GpL16-k0 (antibody, human IgG1, kappa)
heavy 1: not shown
heavy 2: not shown
light: DIVMTQSPLSLPVTPGEPASISCQASESLVHSNRNTYLHWYLQKPGQSPQLLIYKVSNRFSGVPDRFSGSGSGTDFTLKISRVEAEDVGVYYCSQNTHVPPTFGQGTKVEIERTVAAPSVFIFPPSDEQLKSGTASVVCLLNNFYPREAKVQWKVDNALQSGNSQESVTEQDSKDSTYSLSSTLTLSKADYEKHKVYACEVTHQGLSSPVTKSFNRGEC
notes: Heterodimerized anti-glypican-3 IgG1; mutation in one H chain only; also called He Ab
B2: GpH7-A5/GpH7-B3 variant K326_08L/GpL16-k0 (antibody, human IgG1, kappa)
heavy 1: not shown
heavy 2: not shown
light: B1 light
notes: as for B1
B3: GpH7-A5/GpH7-B3 variant K326_20W/GpL16-k0 (antibody, human IgG1, kappa)
heavy 1: not shown
heavy 2: not shown
light: B1 light
notes: as for B1
B4: GpH7-A5/GpH7-B3 variant T335_09D/GpL16-k0 (heterodimerized antibody, He Ab) (antibody, human IgG1, kappa)
heavy 1: not shown
heavy 2: not shown
light: B1 light
notes: Anti-glypican-3 IgG1 heterodimer; the alteration stands in one H chain only; EU numbering; also called T335_09D He Ab; T335D in one H chain
B5: GpH7-A5/GpH7-B3 variant N325_10E/GpL16-k0 (antibody, human IgG1, kappa)
heavy 1: not shown
heavy 2: not shown
light: B1 light
notes: as for B1
B6: GpH7-B3 variant T335_04F/GpL16-k0 (homodimerized antibody, Ho Ab) (antibody, human IgG1, kappa)
heavy: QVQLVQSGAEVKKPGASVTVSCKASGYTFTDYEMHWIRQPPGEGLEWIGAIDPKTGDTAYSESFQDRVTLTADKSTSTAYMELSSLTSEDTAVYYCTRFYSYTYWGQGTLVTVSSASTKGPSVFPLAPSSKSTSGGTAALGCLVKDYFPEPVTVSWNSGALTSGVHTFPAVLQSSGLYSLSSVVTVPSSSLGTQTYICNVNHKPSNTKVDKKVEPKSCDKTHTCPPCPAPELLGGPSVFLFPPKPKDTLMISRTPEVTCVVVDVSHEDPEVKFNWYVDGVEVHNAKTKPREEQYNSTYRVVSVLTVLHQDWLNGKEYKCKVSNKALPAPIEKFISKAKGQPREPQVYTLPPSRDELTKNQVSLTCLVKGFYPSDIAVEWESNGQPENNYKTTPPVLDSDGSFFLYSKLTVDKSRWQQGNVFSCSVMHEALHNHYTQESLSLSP
light: B1 light
notes: Anti-glypican-3 IgG1 (G1d with K439E); the alteration stands in both H chains; EU numbering; also called T335_04F Ho Ab; T335F in both H chains
B7: GpH7-A5/GpH7-B3 variant N325_05P/GpL16-k0 (antibody, human IgG1, kappa)
heavy 1: not shown
heavy 2: not shown
light: B1 light
notes: as for B1
B8: GpH7-A5/GpH7-B3 variant K326_07I/GpL16-k0 (antibody, human IgG1, kappa)
heavy 1: not shown
heavy 2: not shown
light: B1 light
notes: as for B1
B9: GpH7-A5/GpH7-B3 variant N325_06M/GpL16-k0 (antibody, human IgG1, kappa)
heavy 1: not shown
heavy 2: not shown
light: B1 light
notes: as for B1
B10: GpH7-A5/GpH7-B3 variant N325_02A/GpL16-k0 (antibody, human IgG1, kappa)
heavy 1: not shown
heavy 2: not shown
light: B1 light
notes: as for B1
B11: GpH7-A5/GpH7-B3 variant N325_07I/GpL16-k0 (antibody, human IgG1, kappa)
heavy 1: not shown
heavy 2: not shown
light: B1 light
notes: as for B1
B12: GpH7-A5/GpH7-B3 variant N325_09D/GpL16-k0 (antibody, human IgG1, kappa)
heavy 1: not shown
heavy 2: not shown
light: B1 light
notes: as for B1
B13: GpH7-B3 variant Y300_08L/GpL16-k0 (homodimerized antibody, Ho Ab) (antibody, human IgG1, kappa)
heavy: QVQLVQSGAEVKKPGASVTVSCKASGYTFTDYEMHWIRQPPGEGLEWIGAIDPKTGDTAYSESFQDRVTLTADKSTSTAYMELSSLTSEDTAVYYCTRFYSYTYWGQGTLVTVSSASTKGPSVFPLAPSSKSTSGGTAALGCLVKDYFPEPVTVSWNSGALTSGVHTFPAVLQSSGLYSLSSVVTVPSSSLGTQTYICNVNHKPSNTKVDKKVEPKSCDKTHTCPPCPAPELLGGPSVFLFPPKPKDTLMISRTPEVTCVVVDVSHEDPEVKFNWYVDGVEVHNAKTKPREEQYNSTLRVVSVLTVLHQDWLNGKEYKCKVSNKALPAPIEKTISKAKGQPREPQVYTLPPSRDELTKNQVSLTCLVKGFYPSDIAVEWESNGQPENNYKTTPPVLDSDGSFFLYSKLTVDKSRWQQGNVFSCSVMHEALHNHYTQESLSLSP
light: B1 light
notes: Anti-glypican-3 IgG1 (G1d with K439E); the alteration stands in both H chains; EU numbering; also called Y300_08L Ho Ab; Y300L in both H chains
B14: GpH7-B3 variant T335_05P/GpL16-k0 (homodimerized antibody, Ho Ab) (antibody, human IgG1, kappa)
heavy: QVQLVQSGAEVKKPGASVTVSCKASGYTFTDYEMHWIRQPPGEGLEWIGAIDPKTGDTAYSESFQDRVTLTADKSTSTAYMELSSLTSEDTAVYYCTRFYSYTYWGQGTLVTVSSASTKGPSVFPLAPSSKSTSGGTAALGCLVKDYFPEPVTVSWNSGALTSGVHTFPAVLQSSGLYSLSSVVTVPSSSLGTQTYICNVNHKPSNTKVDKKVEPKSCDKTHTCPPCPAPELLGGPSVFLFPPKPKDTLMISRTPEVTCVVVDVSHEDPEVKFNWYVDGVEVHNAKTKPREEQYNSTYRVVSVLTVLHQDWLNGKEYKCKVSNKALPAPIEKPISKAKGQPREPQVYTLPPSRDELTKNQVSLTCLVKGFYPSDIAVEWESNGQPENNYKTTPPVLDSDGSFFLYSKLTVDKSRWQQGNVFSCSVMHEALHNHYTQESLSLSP
light: B1 light
notes: Anti-glypican-3 IgG1 (G1d with K439E); the alteration stands in both H chains; EU numbering; also called T335_05P Ho Ab; T335P in both H chains
B15: GpH7-A5/GpH7-B3 variant K326_05P/GpL16-k0 (antibody, human IgG1, kappa)
heavy 1: not shown
heavy 2: not shown
light: B1 light
notes: as for B1
B16: GpH7-A5/GpH7-B3 variant Y300_08L/GpL16-k0 (heterodimerized antibody, He Ab) (antibody, human IgG1, kappa)
heavy 1: not shown
heavy 2: not shown
light: B1 light
notes: Anti-glypican-3 IgG1 heterodimer; the alteration stands in one H chain only; EU numbering; also called Y300_08L He Ab; Y300L in one H chain
B17: GpH7-A5/GpH7-B3 variant K326_10E/GpL16-k0 (antibody, human IgG1, kappa)
heavy 1: not shown
heavy 2: not shown
light: B1 light
notes: as for B1
B18: GpH7-A5/GpH7-B3 variant Y300_06M/GpL16-k0 (heterodimerized antibody, He Ab) (antibody, human IgG1, kappa)
heavy 1: not shown
heavy 2: not shown
light: B1 light
notes: Anti-glypican-3 IgG1 heterodimer; the alteration stands in one H chain only; EU numbering; also called Y300_06M He Ab; Y300M in one H chain
B19: GpH7-B3 variant T335_06M/GpL16-k0 (homodimerized antibody, Ho Ab) (antibody, human IgG1, kappa)
heavy: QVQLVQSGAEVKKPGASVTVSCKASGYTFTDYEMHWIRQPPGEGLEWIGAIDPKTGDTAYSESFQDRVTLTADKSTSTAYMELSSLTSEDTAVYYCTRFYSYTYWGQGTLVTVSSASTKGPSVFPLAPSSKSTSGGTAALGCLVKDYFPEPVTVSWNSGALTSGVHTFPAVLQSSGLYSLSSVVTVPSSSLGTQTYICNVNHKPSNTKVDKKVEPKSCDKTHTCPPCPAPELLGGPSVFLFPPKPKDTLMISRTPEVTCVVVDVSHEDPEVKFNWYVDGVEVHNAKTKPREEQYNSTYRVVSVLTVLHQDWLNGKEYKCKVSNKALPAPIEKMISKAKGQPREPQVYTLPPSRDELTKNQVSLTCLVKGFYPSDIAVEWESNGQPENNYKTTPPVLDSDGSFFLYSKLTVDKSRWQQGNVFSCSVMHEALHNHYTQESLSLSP
light: B1 light
notes: Anti-glypican-3 IgG1 (G1d with K439E); the alteration stands in both H chains; EU numbering; also called T335_06M Ho Ab; T335M in both H chains
B20: GpH7-A5/GpH7-B3 variant K326_14T/GpL16-k0 (antibody, human IgG1, kappa)
heavy 1: not shown
heavy 2: not shown
light: B1 light
notes: as for B1

Columns and labels:
[1] = biological target: T1, FcγRIIb, extracellular domain with …; assay: SPR (Biacore), relative binding vs GpH7-A5/GpH7-B3/GpL16-k0
[2] = biological target: T2, FcγRIIa H (FcγRIIa, allotype with His …); assay: as above
[3] = biological target: T2, FcγRIIa H (FcγRIIa, allotype with His …); assay: SPR (Biacore); He/Con_2aH divided by He/Con_2b (FcγRIIb)
[4] = biological target: T3, FcγRIIa H (human FcγRIIa, allotype …); assay: SPR (Biacore T100), antibody captured on antigen-peptide chip, FcγRIIa H as analyte; relative binding
Method: Analysis of interaction between objective antibody and the FcγR was carried out using Biacore T100 (GE Healthcare). HBS-EP+ (GE Healthcare) was used as the running buffer, and the measurement temperature was set to 25° C. Chips produced by immobilizing the antigen peptide by the amine coupling method to a Series S Sencor Chip CM5 (GE Healthcare), or alternatively, chips produced by allowing preliminarily biotinylated antigen peptides to interact with and immobilize onto a Series S Sensor Chip SA (certified) (GE Healthcare) were used. Antibodies of interest were captured onto an antigen peptide-immobilized chip, and allowed to interact to each FcγR diluted with running buffer. To regenerate and repeatedly use the chip, the antibodies captured on the chip were washed off by reacting 10 mM glycine-HCl, pH 1.5.

Binder	He/Con_2b [1]	He/Con_2aH [2]	He_2aH/2b (IIaH/IIb) [3] [ratio]	He/Con_2aH [4]	Ho/Con_2aH [4]
B1	193 % of HeCon Ab (=100)	110 % of HeCon Ab (=100)	0.57		
B2	177 % of HeCon Ab (=100)	92.7 % of HeCon Ab (=100)	0.52		
B3	148 % of HeCon Ab (=100)	83.3 % of HeCon Ab (=100)	0.56		
B4				107 relative binding activity (control heterodimerized antibody GpH7-A5/GpH7-B3/GpL16-k0 = 100)	
B5	95.9 % of HeCon Ab (=100)	52.5 % of HeCon Ab (=100)	0.55		
B6					104 relative binding activity (control homodimerized antibody GpH7-B3/GpL16-k0 = 100)
B7	26 % of HeCon Ab (=100)	20.7 % of HeCon Ab (=100)	0.8		
B8	199 % of HeCon Ab (=100)	100 % of HeCon Ab (=100)	0.5		
B9	217 % of HeCon Ab (=100)	48.2 % of HeCon Ab (=100)	0.22		
B10	64.4 % of HeCon Ab (=100)	47.6 % of HeCon Ab (=100)	0.74		
B11	171 % of HeCon Ab (=100)	38.1 % of HeCon Ab (=100)	0.22		
B12	124 % of HeCon Ab (=100)	53.1 % of HeCon Ab (=100)	0.43		
B13					115 relative binding activity (control homodimerized antibody GpH7-B3/GpL16-k0 = 100)
B14					115 relative binding activity (control homodimerized antibody GpH7-B3/GpL16-k0 = 100)
B15	126 % of HeCon Ab (=100)	98.8 % of HeCon Ab (=100)	0.79		
B16				108 relative binding activity (control heterodimerized antibody GpH7-A5/GpH7-B3/GpL16-k0 = 100)	
B17	200 % of HeCon Ab (=100)	102 % of HeCon Ab (=100)	0.51		
B18				105 relative binding activity (control heterodimerized antibody GpH7-A5/GpH7-B3/GpL16-k0 = 100)	
B19					106 relative binding activity (control homodimerized antibody GpH7-B3/GpL16-k0 = 100)
B20	150 % of HeCon Ab (=100)	114 % of HeCon Ab (=100)	0.77		
